B1: bovine α2 NC1 monomer (collagen IV α2-chain NC1 domain from bovine lens basement membrane) (domain or fragment)
chain: ISIGYLLVKHSQTDQEPMCPVGMNKLWSGYSLLYFEGQEKAHNQDLGLAGSCLARFSTMPFLYCNPGDVCYYASRNDKSYWLSTTAPLPMMPVAEEDIRPYISRCSVCEAPAVAIAVHSQDVSIPHCPAGWRSLWIGYSFLMHTAAGDEGGGQSLVSPGSCLEDFRATPFIECNGARGTCHYYANKYSFWLTTIPEQSFQGTPSADTLKAGLIRTHISRCQVCMKNL
notes: collagen IV α2-chain NC1 domain, bovine, monomer from tissue-extracted NC1 hexamer; Used as a mixture with the α1 NC1 monomer; also called tissue-derived α2 NC1 monomer; NC1 monomers; source: purified from bovine lens basement membrane
B2: human collagen IV α1-chain NC1 domain, third domain of the single-chain trimer (residues 1446–1669) (domain or fragment, UniProt P02462 1446-1669, looked up)
chain: FLVTRHSQTIDDPQCPSGTKILYHGYSLLYVQGNERAHGQDLGTAGSCLRKFSTMPFLFCNINNVCNFASRNDYSYWLSTPEPMPMSMAPITGENIRPFISRCAVCEAPAMVMAVHSQTIQIPPCPSGWSSLWIGYSFVMHTSAGAEGSGQALASPGSCLEEFRSAPFIECHGRGTCNYYANAYSFWLATIERSEMFKKPTPSTLKAGELRTHVSRCQVCMRRT
notes: collagen IV α1-chain NC1 domain, human, residues 1446–1669 (including final C-terminal residues); Not a free protein: joined by an APG linker to m5 on the single chain m1; also called α1 NC1 domain

The target of data set [1] is T1, bovine α1 NC1 monomer (collagen IV α1-chain NC1 domain from bovine lens basement membrane) (bovine, UniProt Q7SIB2 1441-1669).
T1 construct: collagen IV α1-chain NC1 domain, bovine, monomer from tissue-extracted NC1 hexamer; Used as a mixture with the α2 NC1 monomer; also called tissue-derived α1 NC1 monomer; NC1 monomers; source: purified from bovine lens basement membrane
T1 sequence: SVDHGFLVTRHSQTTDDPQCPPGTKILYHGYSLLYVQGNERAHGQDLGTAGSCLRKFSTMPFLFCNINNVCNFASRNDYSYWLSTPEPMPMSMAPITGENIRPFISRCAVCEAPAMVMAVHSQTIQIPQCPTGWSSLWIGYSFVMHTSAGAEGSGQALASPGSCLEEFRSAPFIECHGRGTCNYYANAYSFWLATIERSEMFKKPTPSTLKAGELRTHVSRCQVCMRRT
The data set can be described thus: SEC; in vitro hexamer assembly: 1 mg/ml in 25 mM Tris acetate pH 7.5, induced with 150 mM NaCl, 24 h at 37 °C unless varied (NaCl, protein, temperature, time); hexamer peak quantified by SEC; second-order fit T+T→H. Particulars: both partners purified. In general terms: In gel filtration, larger molecules generally elute earlier.

The target of data set [2] is T2, human collagen IV α1-chain NC1 domain, first domain of the single-chain trimer (residues 1438–1666) (human, UniProt P02462 1438-1666).
T2 construct: collagen IV α1-chain NC1 domain, human, residues 1438–1666; Not a free protein: joined by a GTG linker to m5 on the single chain m1; written apart for the domain-domain contacts in the crystal structure; also called α1 NC1 domain; not shown: FLAG, N-terminal, kept
T2 sequence (looked up): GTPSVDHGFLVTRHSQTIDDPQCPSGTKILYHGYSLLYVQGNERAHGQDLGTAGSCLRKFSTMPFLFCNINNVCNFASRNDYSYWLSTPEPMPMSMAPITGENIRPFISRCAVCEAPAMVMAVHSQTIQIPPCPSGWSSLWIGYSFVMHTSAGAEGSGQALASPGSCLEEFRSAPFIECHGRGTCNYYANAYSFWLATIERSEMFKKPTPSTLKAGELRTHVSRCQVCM
The data set can be described thus: crystal structure; X-ray, 1.9 Å, space group P4_(1)2_(1)2; protein 11 mg/ml in 5 mM Tris-HCl pH 7.5, 150 mM NaCl; hexamer by crystallographic 2-fold. Particulars: both partners purified.

The target of data set [3] is B2. The data set is described as above. As to conditions: both partners purified.
Data set [4] deals with the molecule itself. The description is as above.
For data set [5], the target named is T1, bovine α1 NC1 monomer (collagen IV …). The experiment in a line: co-IP; bovine α1 and α2 NC1 monomers incubated with sc121 NC1-trimer in the presence of Cl−; formed hexamers immunoprecipitated by the FLAG tag of the recombinant trimer and their composition analysed (Fig. S3). As to conditions: both partners purified.
For data set [6], the target named is B1. Described as above. Particulars: both partners purified.
Data set [7] concerns the molecule itself. The data set can be described thus: SEC; in vitro hexamer assembly: 1 mg/ml in 25 mM Tris acetate pH 7.5, induced with 150 mM NaCl, 24 h at 37 °C unless varied (NaCl, protein, temperature, time); hexamer peak quantified by SEC; second-order fit T+T→H.
Data set [8] deals with the molecule itself. The experiment in a line: AUC; sedimentation equilibrium, 0.3 mg/ml in Cl−-free TNA (25 mM Tris acetate pH 7.5, 150 mM sodium acetate), 4 °C, 10,000 rpm, 48 h; trimer–to–hexamer self-association model (two single chains to one hexamer), trimer mass fixed to 74 kDa.

For B1, the binding result in data set [1] is reported as “binds”.
Regarding B2, the binding result in data set [2] was “binds”.

B3: human collagen IV α2-chain NC1 domain, second domain of the single-chain trimer (residues 1490–1709) (domain or fragment, UniProt P08572 1490-1709, looked up)
chain: YLLVKHSQTDQEPMCPVGMNKLWSGYSLLYFEGQEKAHNQDLGLAGSCLARFSTMPFLYCNPGDVCYYASRNDKSYWLSTTAPLPMMPVAEDEIKPYISRCSVCEAPAIAIAVHSQDVSIPHCPAGWRSLWIGYSFLMHTAAGDEGGGQSLVSPGSCLEDFRATPFIECNGGRGTCHYYANKYSFWLTTIPEQSFQGSPSADTLKAGLIRTHISRCQVCM
notes: collagen IV α2-chain NC1 domain, human, residues 1490–1709; Not a free protein: joined by GTG (N-terminal side, to m4) and APG (C-terminal side, to m6) linkers on the single chain m1; also called α2 NC1 domain
Take B3: the binding result in data set [2] and in data set [3] was “binds” throughout.

B4: single-chain α121 NC1 trimer (sc121 NC1-trimer) (other, human)
chain: GTPSVDHGFLVTRHSQTIDDPQCPSGTKILYHGYSLLYVQGNERAHGQDLGTAGSCLRKFSTMPFLFCNINNVCNFASRNDYSYWLSTPEPMPMSMAPITGENIRPFISRCAVCEAPAMVMAVHSQTIQIPPCPSGWSSLWIGYSFVMHTSAGAEGSGQALASPGSCLEEFRSAPFIECHGRGTCNYYANAYSFWLATIERSEMFKKPTPSTLKAGELRTHVSRCQVCMGTGYLLVKHSQTDQEPMCPVGMNKLWSGYSLLYFEGQEKAHNQDLGLAGSCLARFSTMPFLYCNPGDVCYYASRNDKSYWLSTTAPLPMMPVAEDEIKPYISRCSVCEAPAIAIAVHSQDVSIPHCPAGWRSLWIGYSFLMHTAAGDEGGGQSLVSPGSCLEDFRATPFIECNGGRGTCHYYANKYSFWLTTIPEQSFQGSPSADTLKAGLIRTHISRCQVCMAPGFLVTRHSQTIDDPQCPSGTKILYHGYSLLYVQGNERAHGQDLGTAGSCLRKFSTMPFLFCNINNVCNFASRNDYSYWLSTPEPMPMSMAPITGENIRPFISRCAVCEAPAMVMAVHSQTIQIPPCPSGWSSLWIGYSFVMHTSAGAEGSGQALASPGSCLEEFRSAPFIECHGRGTCNYYANAYSFWLATIERSEMFKKPTPSTLKAGELRTHVSRCQVCMRRT
notes: collagen IV α1-chain NC1 domain, human, residues 1438–1666; artificial Gly–Thr–Gly linker between α1 and α2; collagen IV α2-chain NC1 domain, human, residues 1490–1709; artificial Ala–Pro–Gly linker between α2 and α1; collagen IV α1-chain NC1 domain, human, residues 1446–1669 (including final C-terminal residues); Vector-derived residues between the FLAG tag and the first α1 residue may be …
For B4, the stoichiometry N (commonly a count of units in the complex or per binding partner) in data set [4] stood at 2. Besides, the binding result in data set [5] and in data set [6] was “binds” in each case. In addition, in data set [7], the kon (commonly a measure of how fast the partners come together) worked out at 3.45 ± 0.12 M⁻¹ s⁻¹. In addition, binding in data set [8] was put at a Kd of 37 µM.

These data come from article PMC6527180, “A chloride ring is an ancient evolutionary innovation mediating the assembly of the collagen IV scaffold of basement membranes” (The Journal of Biological Chemistry, 2019).
